Measurements: paper PMC8298264, “Function of cofactor Akirin2 in the regulation of gene expression in model human neutrophil-like HL60 cells” (Bioscience Reports, 2021)

B1: sp¦Q8TCS8¦PNPT1_HUMAN (protein, UniProt Q8TCS8 46-783, looked up)
Polyribonucleotide …: AVAVDLGNRKLEISSGKLARFADGSAVVQSGDTAVMVTAVSKTKPSPSQFMPLVVDYRQKAAAAGRIPTNYLRREIGTSDKEILTSRIIDRSIRPLFPAGYFYDTQVLCNLLAVDGVNEPDVLAINGASVALSLSDIPWNGPVGAVRIGIIDGEYVVNPTRKEMSSSTLNLVVAGAPKSQIVMLEASAENILQQDFCHAIKVGVKYTQQIIQGIQQLVKETGVTKRTPQKLFTPSPEIVKYTHKLAMERLYAVFTDYEHDKVSRDEAVNKIRLDTEEQLKEKFPEADPYEIIESFNVVAKEVFRSIVLNEYKRCDGRDLTSLRNVSCEVDMFKTLHGSALFQRGQTQVLCTVTFDSLESGIKSDQVITAINGIKDKNFMLHYEFPPYATNEIGKVTGLNRRELGHGALAEKALYPVIPRDFPFTIRVTSEVLESNGSSSMASACGGSLALMDSGVPISSAVAGVAIGLVTKTDPEKGEIEDYRLLTDILGIEDYNGDMDFKIAGTNKGITALQADIKLPGIPIKIVMEAIQQASVAKKEILQIMNKTISKPRASRKENGPVVETVQVPLSKRAKFVGPGGYNLKKLQAETGVTISQVDEETFSVFAPTPSAMHEARDFITEICKDDQEQQLEFGAVYTATITEIRDTGVMVKLYPNMTAVLLHNTQLDQRKIKHPTALGLEVGQEIQVKYFGRDPADGRMRLSRKVLQSPATTVVRTLNDRSSIVMGEPISQSSSNSQ
B2: sp¦O60306¦AQR_HUMAN (protein, UniProt O60306 1-1485, looked up)
RNA helicase aquarius: MAAPAQPKKIVAPTVSQINAEFVTQLACKYWAPHIKKKSPFDIKVIEDIYEKEIVKSRFAIRKIMLLEFSQYLENYLWMNYSPEVSSKAYLMSICCMVNEKFRENVPAWEIFKKKPDHFPFFFKHILKAALAETDGEFSLHEQTVLLLFLDHCFNSLEVDLIRSQVQQLISLPMWMGLQLARLELELKKTPKLRKFWNLIKKNDEKMDPEAREQAYQERRFLSQLIQKFISVLKSVPLSEPVTMDKVHYCERFIELMIDLEALLPTRRWFNTILDDSHLLVHCYLSNLVRREEDGHLFSQLLDMLKFYTGFEINDQTGNALTENEMTTIHYDRITSLQRAAFAHFPELYDFALSNVAEVDTRESLVKFFGPLSSNTLHQVASYLCLLPTLPKNEDTTFDKEFLLELLVSRHERRISQIQQLNQMPLYPTEKIIWDENIVPTEYYSGEGCLALPKLNLQFLTLHDYLLRNFNLFRLESTYEIRQDIEDSVSRMKPWQSEYGGVVFGGWARMAQPIVAFTVVEVAKPNIGENWPTRVRADVTINLNVRDHIKDEWEGLRKHDVCFLITVRPTKPYGTKFDRRRPFIEQVGLVYVRGCEIQGMLDDKGRVIEDGPEPRPNLRGESRTFRVFLDPNQYQQDMTNTIQNGAEDVYETFNIIMRRKPKENNFKAVLETIRNLMNTDCVVPDWLHDIILGYGDPSSAHYSKMPNQIATLDFNDTFLSIEHLKASFPGHNVKVTVEDPALQIPPFRITFPVRSGKGKKRKDADVEDEDTEEAKTLIVEPHVIPNRGPYPYNQPKRNTIQFTHTQIEAIRAGMQPGLTMVVGPPGTGKTDVAVQIISNIYHNFPEQRTLIVTHSNQALNQLFEKIMALDIDERHLLRLGHGEEELETEKDFSRYGRVNYVLARRIELLEEVKRLQKSLGVPGDASYTCETAGYFFLYQVMSRWEEYISKVKNKGSTLPDVTEVSTFFPFHEYFANAPQPIFKGRSYEEDMEIAEGCFRHIKKIFTQLEEFRASELLRSGLDRSKYLLVKEAKIIAMTCTHAALKRHDLVKLGFKYDNILMEEAAQILEIETFIPLLLQNPQDGFSRLKRWIMIGDHHQLPPVIKNMAFQKYSNMEQSLFTRFVRVGVPTVDLDAQGRARASLCNLYNWRYKNLGNLPHVQLLPEFSTANAGLLYDFQLINVEDFQGVGESEPNPYFYQNLGEAEYVVALFMYMCLLGYPADKISILTTYNGQKHLIRDIINRRCGNNPLIGRPNKVTTVDRFQGQQNDYILLSLVRTRAVGHLRDVRRLVVAMSRARLGLYIFARVSLFQNCFELTPAFSQLTARPLHLHIIPTEPFPTTRKNGERPSHEVQIIKNMPQMANFVYNMYMHLIQTTHHYHQTLLQLPPAMVEEGEEVQNQETELETEEEAMTVQADIIPSPTDTSCRQETPAFQTDTTPSETGATSTPEAIPALSETTPTVVGAVSAPAEANTPQDATSAPEETK
B3: sp¦Q8N335¦GPD1L_HUMAN (protein, UniProt Q8N335 1-351, looked up)
Glycerol-3-phosphate …: MAAAPLKVCIVGSGNWGSAVAKIIGNNVKKLQKFASTVKMWVFEETVNGRKLTDIINNDHENVKYLPGHKLPENVVAMSNLSEAVQDADLLVFVIPHQFIHRICDEITGRVPKKALGITLIKGIDEGPEGLKLISDIIREKMGIDISVLMGANIANEVAAEKFCETTIGSKVMENGLLFKELLQTPNFRITVVDDADTVELCGALKNIVAVGAGFCDGLRCGDNTKAAVIRLGLMEMIAFARIFCKGQVSTATFLESCGVADLITTCYGGRNRRVAEAFARTGKTIEELEKEMLNGQKLQGPQTSAEVYRILKQKGLLDKFPLFTAVYQICYESRPVQEMLSCLQSHPEHT
B4: sp¦P62995¦TRA2B_HUMAN (protein, UniProt P62995 2-288, looked up)
Transformer-2 protein homolog …: SDSGEQNYGERESRSASRSGSAHGSGKSARHTPARSRSKEDSRRSRSKSRSRSESRSRSRRSSRRHYTRSRSRSRSHRRSRSRSYSRDYRRRHSHSHSPMSTRRRHVGNRANPDPNCCLGVFGLSLYTTERDLREVFSKYGPIADVSIVYDQQSRRSRGFAFVYFENVDDAKEAKERANGMELDGRRIRVDFSITKRPHTPTPGIYMGRPTYGSSRRRDYYDRGYDRGYDDRDYYSRSYRGGGGGGGGWRAAQDRDQIYRRRSPSPYYSRGGYRSRSRSRSYSPRRY
B5: sp¦P41250¦GARS_HUMAN (protein, UniProt P41250 37-739, looked up)
Glycine--tRNA ligase: SAASCPPISLPAAASRSSMDGAGAEEVLAPLRLAVRQQGDLVRKLKEDKAPQVDVDKAVAELKARKRVLEAKELALQPKDDIVDRAKMEDTLKRRFFYDQAFAIYGGVSGLYDFGPVGCALKNNIIQTWRQHFIQEEQILEIDCTMLTPEPVLKTSGHVDKFADFMVKDVKNGECFRADHLLKAHLQKLMSDKKCSVEKKSEMESVLAQLDNYGQQELADLFVNYNVKSPITGNDLSPPVSFNLMFKTFIGPGGNMPGYLRPETAQGIFLNFKRLLEFNQGKLPFAAAQIGNSFRNEISPRSGLIRVREFTMAEIEHFVDPSEKDHPKFQNVADLHLYLYSAKAQVSGQSARKMRLGDAVEQGVINNTVLGYFIGRIYLYLTKVGISPDKLRFRQHMENEMAHYACDCWDAESKTSYGWIEIVGCADRSCYDLSCHARATKVPLVAEKPLKEPKTVNVVQFEPSKGAIGKAYKKDAKLVMEYLAICDECYITEMEMLLNEKGEFTIETEGKTFQLTKDMINVKRFQKTLYVEEVVPNVIEPSFGLGRIMYTVFEHTFHVREGDEQRTFFSFPAVVAPFKCSVLPLSQNQEFMPFVKELSEALTRHGVSHKVDDSSGSIGRRYARTDEIGVAFGVTIDFDTVNKTPHTATLRDRDSMRQIRAEISELPSIVQDLANGNITWADVEARYPLFEGQETGKKETIEE
B6: sp¦P43034¦LIS1_HUMAN (protein, UniProt P43034 1-410, looked up)
Platelet-activating factor …: MVLSQRQRDELNRAIADYLRSNGYEEAYSVFKKEAELDVNEELDKKYAGLLEKKWTSVIRLQKKVMELESKLNEAKEEFTSGGPLGQKRDPKEWIPRPPEKYALSGHRSPVTRVIFHPVFSVMVSASEDATIKVWDYETGDFERTLKGHTDSVQDISFDHSGKLLASCSADMTIKLWDFQGFECIRTMHGHDHNVSSVAIMPNGDHIVSASRDKTIKMWEVQTGYCVKTFTGHREWVRMVRPNQDGTLIASCSNDQTVRVWVVATKECKAELREHEHVVECISWAPESSYSSISEATGSETKKSGKPGPFLLSGSRDKTIKMWDVSTGMCLMTLVGHDNWVRGVLFHSGGKFILSCADDKTLRVWDYKNKRCMKTLNAHEHFVTSLDFHKTAPYVVTGSVDQTVKVWECR
B7: sp¦P40926¦MDHM_HUMAN (protein, UniProt P40926 25-338, looked up)
Malate dehydrogenase, …: AKVAVLGASGGIGQPLSLLLKNSPLVSRLTLYDIAHTPGVAADLSHIETKAAVKGYLGPEQLPDCLKGCDVVVIPAGVPRKPGMTRDDLFNTNATIVATLTAACAQHCPEAMICVIANPVNSTIPITAEVFKKHGVYNPNKIFGVTTLDIVRANTFVAELKGLDPARVNVPVIGGHAGKTIIPLISQCTPKVDFPQDQLTALTGRIQEAGTEVVKAKAGAGSATLSMAYAGARFVFSLVDAMNGKEGVVECSFVKSQETECTYFSTPLLLGKKGIEKNLGIGKVSSFEEKMISDAIPELKASIKKGEDFVKTLK
B8: sp¦Q15654¦TRIP6_HUMAN (protein, UniProt Q15654 1-476, looked up)
Thyroid receptor-interacting …: MSGPTWLPPKQPEPARAPQGRAIPRGTPGPPPAHGAALQPHPRVNFCPLPSEQCYQAPGGPEDRGPAWVGSHGVLQHTQGLPADRGGLRPGSLDAEIDLLSSTLAELNGGRGHASRRPDRQAYEPPPPPAYRTGSLKPNPASPLPASPYGGPTPASYTTASTPAGPAFPVQVKVAQPVRGCGPPRRGASQASGPLPGPHFPLPGRGEVWGPGYRSQREPGPGAKEEAAGVSGPAGRGRGGEHGPQVPLSQPPEDELDRLTKKLVHDMNHPPSGEYFGQCGGCGEDVVGDGAGVVALDRVFHVGCFVCSTCRAQLRGQHFYAVERRAYCEGCYVATLEKCATCSQPILDRILRAMGKAYHPGCFTCVVCHRGLDGIPFTVDATSQIHCIEDFHRKFAPRCSVCGGAIMPEPGQEETVRIVALDRSFHIGCYKCEECGLLLSSEGECQGCYPLDGHILCKACSAWRIQELSATVTTDC
B9: sp¦Q9Y5Y2¦NUBP2_HUMAN (protein, UniProt Q9Y5Y2 1-271, looked up)
Cytosolic Fe-S cluster …: MEAAAEPGNLAGVRHIILVLSGKGGVGKSTISTELALALRHAGKKVGILDVDLCGPSIPRMLGAQGRAVHQCDRGWAPVFLDREQSISLMSVGFLLEKPDEAVVWRGPKKNALIKQFVSDVAWGELDYLVVDTPPGTSDEHMATIEALRPYQPLGALVVTTPQAVSVGDVRRELTFCRKTGLRVMGIVENMSGFTCPHCTECTSVFSRGGGEELAQLAGVPFLGSVPLDPALMRTLEEGHDFIQEFPGSPAFAALTSIAQKILDATPACLP

tested on: human HL60 cells; assay: SWATH-MS proteomics, differential protein representation, akirin2 KO vs WT HL60 cells; format: cell-based; conditions: SWATH-MS, akirin2 KO vs WT HL60 cells, under-represented in KO
In short: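 WT and akirin2 KO HL60 lysates (150 µg, n=3 biological replicates) were FASP trypsin-digested and desalted. A spectral library was built by IDA from 3 µg digests, then 5 µg per sample went to variable-window SWATH DIA over a 120-min 5–30% acetonitrile gradient. Identifications were accepted at 1% global FDR, with total-area-sum normalization.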

Molecule | Fold Change | Log (Fold Change)
B1 | 0.6886 | -0.162

same assay, conditions: akirin2 KO vs WT HL60 cells; sheet "Under-represented in KO"

Molecule | Fold Change | Log (Fold Change)
B2 | 0.6822 | -0.1661
B3 | 0.6832 | -0.1655
B4 | 0.3066 | -0.5134
B5 | 0.6839 | -0.165
B6 | 0.6845 | -0.1646
B7 | 0.6852 | -0.1642
B8 | 0.6873 | -0.1629
B9 | 0.6881 | -0.1623
